Measured values: article PMC9482650, “Quantitative fragmentomics allow affinity mapping of interactomes” (Nature Communications, 2022)

Columns and labels:
Assay in all cases: holdup assay
Conditions in all cases: plain residues with an end cap or a label only (N-terminal biotin on a linker: none)
CNKSR3, Q6P9H4 = biological target: CNKSR3, Q6P9H4
DLG2_1, Q15700 = biological target: DLG2_1, Q15700
IL16_2, Q14005 = biological target: IL16_2, Q14005
INTU, Q9ULD6 = biological target: T1, INTU, Q9ULD6
T1 sequence (Q9ULD6 180-273, limits assumed, looked up): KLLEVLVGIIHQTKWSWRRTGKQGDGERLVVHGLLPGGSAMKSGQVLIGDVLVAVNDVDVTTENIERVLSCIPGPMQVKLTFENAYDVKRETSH

MAGI1_3, Q96QZ7 = biological target: MAGI1_3, Q96QZ7
Sequence of MAGI1_3, Q96QZ7 (Q96QZ7 638-725): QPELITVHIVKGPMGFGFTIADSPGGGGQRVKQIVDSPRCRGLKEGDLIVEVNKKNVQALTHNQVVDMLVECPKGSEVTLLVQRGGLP

MAGI1_4, Q96QZ7 = biological target: MAGI1_4, Q96QZ7
Sequence of MAGI1_4, Q96QZ7 (Q96QZ7 other isoform, or with tags, fused parts or gaps): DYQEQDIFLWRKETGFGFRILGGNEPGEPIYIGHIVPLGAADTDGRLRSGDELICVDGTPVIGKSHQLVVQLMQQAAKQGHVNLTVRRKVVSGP

MAGI1_6, Q96QZ7 = biological target: MAGI1_6, Q96QZ7
Sequence of MAGI1_6, Q96QZ7 (Q96QZ7 1146-1238): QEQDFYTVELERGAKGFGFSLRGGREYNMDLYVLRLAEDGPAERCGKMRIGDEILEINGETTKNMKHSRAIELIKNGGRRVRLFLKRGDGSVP

MAGI3_3, Q5TCQ9 = biological target: MAGI3_3, Q5TCQ9
Sequence of MAGI3_3, Q5TCQ9 (Q5TCQ9 572-655): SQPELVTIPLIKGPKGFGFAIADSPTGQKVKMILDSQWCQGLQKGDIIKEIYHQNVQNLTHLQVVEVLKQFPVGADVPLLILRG

MPDZ_6, O75970 = biological target: T2, MPDZ_6, O75970
T2 sequence (O75970 1003-1099, limits assumed, looked up): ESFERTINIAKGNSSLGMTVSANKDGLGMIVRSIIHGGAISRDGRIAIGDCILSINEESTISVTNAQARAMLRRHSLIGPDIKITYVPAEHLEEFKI

MPDZ_7, O75970 = biological target: T3, MPDZ_7, O75970
T3 sequence (O75970 1146-1253, limits assumed, looked up): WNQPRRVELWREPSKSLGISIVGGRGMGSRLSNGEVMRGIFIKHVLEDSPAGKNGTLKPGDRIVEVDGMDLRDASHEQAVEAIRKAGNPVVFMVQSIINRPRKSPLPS

NHERF1_2, O14745 = biological target: T4, NHERF1_2, O14745
T4 sequence (O14745 149-244, limits assumed, looked up): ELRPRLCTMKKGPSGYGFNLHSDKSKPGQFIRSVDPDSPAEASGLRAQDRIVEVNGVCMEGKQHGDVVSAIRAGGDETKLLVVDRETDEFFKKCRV

NHERF2_1, Q15599 = biological target: NHERF2_1, Q15599
Sequence of NHERF2_1, Q15599 (Q15599 9-91): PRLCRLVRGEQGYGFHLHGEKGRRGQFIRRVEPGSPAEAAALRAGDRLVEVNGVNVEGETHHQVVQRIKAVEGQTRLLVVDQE

PARD3B_2, Q8TEW8 = biological target: PARD3B_2, Q8TEW8
Sequence of PARD3B_2, Q8TEW8 (Q8TEW8 376-471): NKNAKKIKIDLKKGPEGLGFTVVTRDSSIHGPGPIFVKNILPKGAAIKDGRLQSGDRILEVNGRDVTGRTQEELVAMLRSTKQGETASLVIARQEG

PARD6B, Q9BYG5 = biological target: T5, PARD6B, Q9BYG5
T5 sequence (Q9BYG5 152-260, limits assumed, looked up): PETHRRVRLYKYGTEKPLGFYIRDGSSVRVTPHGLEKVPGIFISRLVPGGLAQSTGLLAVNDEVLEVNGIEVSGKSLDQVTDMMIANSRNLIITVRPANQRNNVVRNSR

PDLIM4, P50479 = biological target: PDLIM4, P50479
Sequence of PDLIM4, P50479 (P50479 1-83): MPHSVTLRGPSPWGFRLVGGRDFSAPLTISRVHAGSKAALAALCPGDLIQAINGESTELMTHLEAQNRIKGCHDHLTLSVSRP

PDZD2_5, O15018 = biological target: T6, PDZD2_5, O15018
T6 sequence (O15018 2617-2716, limits assumed, looked up): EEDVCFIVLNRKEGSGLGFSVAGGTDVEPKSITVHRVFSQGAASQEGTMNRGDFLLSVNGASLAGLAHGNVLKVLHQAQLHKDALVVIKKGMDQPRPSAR

PTPN13_4, Q12923 = biological target: T7, PTPN13_4, Q12923
T7 sequence (Q12923 1783-1878, limits assumed, looked up): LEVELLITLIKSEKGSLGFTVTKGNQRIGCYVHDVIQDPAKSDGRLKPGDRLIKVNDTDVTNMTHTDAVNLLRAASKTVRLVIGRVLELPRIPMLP

PTPN4, P29074 = biological target: T8, PTPN4, P29074
T8 sequence (P29074 512-599, limits assumed, looked up): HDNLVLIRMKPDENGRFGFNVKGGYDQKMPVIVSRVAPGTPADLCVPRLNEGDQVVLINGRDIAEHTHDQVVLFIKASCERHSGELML

RIMS1, Q86UR5 = biological target: RIMS1, Q86UR5
Sequence of RIMS1, Q86UR5 (Q86UR5 584-692): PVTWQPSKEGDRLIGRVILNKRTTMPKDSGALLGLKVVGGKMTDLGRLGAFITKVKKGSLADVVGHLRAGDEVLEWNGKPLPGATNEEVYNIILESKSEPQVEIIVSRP

RIMS2, Q9UQ26 = biological target: RIMS2, Q9UQ26
Sequence of RIMS2, Q9UQ26 (Q9UQ26 637-758): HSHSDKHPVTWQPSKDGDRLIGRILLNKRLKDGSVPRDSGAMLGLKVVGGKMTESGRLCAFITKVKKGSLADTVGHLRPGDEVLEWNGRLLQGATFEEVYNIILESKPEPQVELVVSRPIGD

SCRIB_4, Q14160 = biological target: SCRIB_4, Q14160
Sequence of SCRIB_4, Q14160 (Q14160 1095-1204): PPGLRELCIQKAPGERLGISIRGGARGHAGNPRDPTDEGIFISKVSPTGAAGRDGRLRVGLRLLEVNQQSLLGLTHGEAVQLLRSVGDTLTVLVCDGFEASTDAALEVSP

SHANK2, Q9UPX8 = biological target: T9, SHANK2, Q9UPX8
T9 sequence (Q9UPX8 621-730, limits assumed, looked up): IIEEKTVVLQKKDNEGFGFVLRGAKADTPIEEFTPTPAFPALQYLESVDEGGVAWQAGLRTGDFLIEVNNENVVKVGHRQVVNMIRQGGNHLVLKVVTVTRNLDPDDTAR

SHROOM3, Q8TF72 = biological target: T10, SHROOM3, Q8TF72
T10 sequence (Q8TF72 20-120, limits assumed, looked up): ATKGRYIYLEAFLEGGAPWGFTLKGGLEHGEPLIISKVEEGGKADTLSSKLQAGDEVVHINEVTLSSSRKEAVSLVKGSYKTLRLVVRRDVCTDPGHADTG

TJP1_1, Q07157 = biological target: TJP1_1, Q07157
Sequence of TJP1_1, Q07157 (Q07157 18-120): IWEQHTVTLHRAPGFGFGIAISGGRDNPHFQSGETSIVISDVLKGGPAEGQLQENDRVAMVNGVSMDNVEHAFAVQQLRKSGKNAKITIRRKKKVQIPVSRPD

USH1C_2, Q9Y6N9 = biological target: T11, USH1C_2, Q9Y6N9
T11 sequence (Q9Y6N9 206-303, limits assumed, looked up): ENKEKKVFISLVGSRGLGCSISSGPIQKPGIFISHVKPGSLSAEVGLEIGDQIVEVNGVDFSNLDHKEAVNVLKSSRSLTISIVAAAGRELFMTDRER

USH1C_3, Q9Y6N9 = biological target: T12, USH1C_3, Q9Y6N9
T12 sequence (Q9Y6N9 447-547, limits assumed, looked up): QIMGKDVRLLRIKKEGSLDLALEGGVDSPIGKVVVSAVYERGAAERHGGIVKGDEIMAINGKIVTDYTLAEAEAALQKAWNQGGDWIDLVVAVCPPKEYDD

Sequence of CNKSR3, Q6P9H4 (Q6P9H4 203-303): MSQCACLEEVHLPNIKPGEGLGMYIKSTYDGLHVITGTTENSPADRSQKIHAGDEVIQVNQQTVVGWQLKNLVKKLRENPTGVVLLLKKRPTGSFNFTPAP
Sequence of IL16_2, Q14005 (Q14005 350-450): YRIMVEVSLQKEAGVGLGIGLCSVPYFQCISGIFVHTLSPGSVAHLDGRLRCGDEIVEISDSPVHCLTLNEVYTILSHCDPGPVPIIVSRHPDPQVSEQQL

B1: SARS-CoV2-E, P0DTC4 (peptide)
chain: NLNSSRVPDLLV
- pKd (CNKSR3, Q6P9H4): below the threshold
- pKd (DLG2_1, Q15700): below the threshold
- pKd (IL16_2, Q14005): below the threshold
- pKd (INTU, Q9ULD6): below the threshold
- pKd (MAGI1_3, Q96QZ7): below the threshold
- pKd (MAGI1_4, Q96QZ7): 3.75
- pKd (MAGI1_6, Q96QZ7): below the threshold
- pKd (MAGI3_3, Q5TCQ9): below the threshold
- pKd (MPDZ_6, O75970): below the threshold
- pKd (MPDZ_7, O75970): below the threshold
- pKd (NHERF1_2, O14745): 4.76
- pKd (NHERF2_1, Q15599): below the threshold
- pKd (PARD3B_2, Q8TEW8): below the threshold
- pKd (PARD6B, Q9BYG5): below the threshold
- pKd (PDLIM4, P50479): below the threshold
- pKd (PDZD2_5, O15018): below the threshold
- pKd (PTPN13_4, Q12923): 4.64
- pKd (PTPN4, P29074): below the threshold
- pKd (RIMS1, Q86UR5): below the threshold
- pKd (RIMS2, Q9UQ26): below the threshold
- pKd (SCRIB_4, Q14160): below the threshold
- pKd (SHANK2, Q9UPX8): below the threshold
- pKd (SHROOM3, Q8TF72): below the threshold
- pKd (TJP1_1, Q07157): below the threshold
- pKd (USH1C_2, Q9Y6N9): below the threshold
- pKd (USH1C_3, Q9Y6N9): below the threshold
